# In patent US20180185510A1, “ANTIBODY DRUG CONJUGATES OF KINESIN SPINDEL PROTEIN (KSP) INHIBITORS WITH ANTI-B7H3-ANTIBODIES” (BAYER PHARMA AKTIENGESELLSCHAFT, priority 2015, published 2018):
# Where “and” joins values, the source holds several entries; their conditions need not be identical. Equal values may be shown once.
# T1: B7H3 on B7H3-positive human tumour cells (A498, MCF-7, Caki-2, 786-0) (human, UniProt Q5ZPR3 29-534)
# T1 sequence (looked up): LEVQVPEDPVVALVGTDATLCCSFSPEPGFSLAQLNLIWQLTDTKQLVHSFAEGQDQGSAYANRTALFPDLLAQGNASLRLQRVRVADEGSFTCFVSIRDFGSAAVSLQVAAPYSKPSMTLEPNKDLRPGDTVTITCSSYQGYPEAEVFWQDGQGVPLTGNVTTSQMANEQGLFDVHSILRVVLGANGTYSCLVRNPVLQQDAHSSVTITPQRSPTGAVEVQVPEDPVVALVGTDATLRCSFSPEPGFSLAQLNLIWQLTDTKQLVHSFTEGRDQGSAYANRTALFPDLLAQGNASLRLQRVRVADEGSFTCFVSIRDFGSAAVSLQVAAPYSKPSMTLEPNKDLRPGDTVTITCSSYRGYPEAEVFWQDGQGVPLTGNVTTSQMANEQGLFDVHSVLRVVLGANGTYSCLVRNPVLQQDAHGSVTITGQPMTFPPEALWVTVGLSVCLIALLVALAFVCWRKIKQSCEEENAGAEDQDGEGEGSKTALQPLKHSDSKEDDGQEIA
# Target: T1, B7H3 on B7H3-positive human tumour …
# Assay: cell-based or functional assay
Binder,"IC50 [M] CTG, A498 cells (B7H3-positive)","IC50 [M] CTG, MCF-7 cells (B7H3-positive)","IC50 [M] CTG, Caki-2 cells (B7H3-positive)"
"Example 173L1: anti-B7H3 AK1A (TPP-3803) coupled with Intermediate F173 (antibody, human IgG1, kappa, V domains shown, KSP inhibitor-linker (Intermediate F173) on cysteine residues of the partially reduced antibody, sites not given; drug/mAb ratio 3.4) VH: QVKLQQSGAELVKPGASVKLSCKASGYTFTNYDINWVRQRPEQGLEWIGWIFPGDGSTQYNEKFKGKATLTTDTSSSTAYMQLSRLTSEDSAVYFCARQTTATWFAYWGQGTTVTVSS VL: DIELTQSPTTLSVTPGDRVSLSCRASQSISDYLHWYQQKSHESPRLLIKYASQSISGIPSRFSGSGSGSDFTLSINSVEPEDVGVYYCQNGHSFPLTFGAGTKLELKR",6e-07 M,4.98e-09 M,
"Example 274L1: anti-B7H3 AK1A (TPP-3803) coupled with Intermediate F274 (antibody, human IgG1, kappa, V domains shown, KSP inhibitor-linker (Intermediate F274) on cysteine residues of the partially reduced antibody, sites not given; drug/mAb ratio 2.9) VH: QVKLQQSGAELVKPGASVKLSCKASGYTFTNYDINWVRQRPEQGLEWIGWIFPGDGSTQYNEKFKGKATLTTDTSSSTAYMQLSRLTSEDSAVYFCARQTTATWFAYWGQGTTVTVSS VL: DIELTQSPTTLSVTPGDRVSLSCRASQSISDYLHWYQQKSHESPRLLIKYASQSISGIPSRFSGSGSGSDFTLSINSVEPEDVGVYYCQNGHSFPLTFGAGTKLELKR",,1.86e-09 M,
"Example 240L1: anti-B7H3 AK1A (TPP-3803) coupled with Intermediate F240 (antibody, human IgG1, kappa, V domains shown, KSP inhibitor-linker (Intermediate F240) on cysteine residues of the partially reduced antibody, sites not given; drug/mAb ratio 2.7) VH: QVKLQQSGAELVKPGASVKLSCKASGYTFTNYDINWVRQRPEQGLEWIGWIFPGDGSTQYNEKFKGKATLTTDTSSSTAYMQLSRLTSEDSAVYFCARQTTATWFAYWGQGTTVTVSS VL: DIELTQSPTTLSVTPGDRVSLSCRASQSISDYLHWYQQKSHESPRLLIKYASQSISGIPSRFSGSGSGSDFTLSINSVEPEDVGVYYCQNGHSFPLTFGAGTKLELKR",2.35e-09 M,7.25e-10 M,
"Example 259L1: anti-B7H3 AK1A (TPP-3803) coupled with Intermediate F259 (antibody, human IgG1, kappa, V domains shown, KSP inhibitor-linker (Intermediate F259) on cysteine residues of the partially reduced antibody, sites not given; drug/mAb ratio 3.0) VH: QVKLQQSGAELVKPGASVKLSCKASGYTFTNYDINWVRQRPEQGLEWIGWIFPGDGSTQYNEKFKGKATLTTDTSSSTAYMQLSRLTSEDSAVYFCARQTTATWFAYWGQGTTVTVSS VL: DIELTQSPTTLSVTPGDRVSLSCRASQSISDYLHWYQQKSHESPRLLIKYASQSISGIPSRFSGSGSGSDFTLSINSVEPEDVGVYYCQNGHSFPLTFGAGTKLELKR",,4.57e-09 M,
"Example 257L1: anti-B7H3 AK1A (TPP-3803) coupled with Intermediate F257 (antibody, human IgG1, kappa, V domains shown, KSP inhibitor-linker (Intermediate F257) on cysteine residues of the partially reduced antibody, sites not given; drug/mAb ratio 2.4) VH: QVKLQQSGAELVKPGASVKLSCKASGYTFTNYDINWVRQRPEQGLEWIGWIFPGDGSTQYNEKFKGKATLTTDTSSSTAYMQLSRLTSEDSAVYFCARQTTATWFAYWGQGTTVTVSS VL: DIELTQSPTTLSVTPGDRVSLSCRASQSISDYLHWYQQKSHESPRLLIKYASQSISGIPSRFSGSGSGSDFTLSINSVEPEDVGVYYCQNGHSFPLTFGAGTKLELKR",,4.49e-10 M,
"Example 297L1 (Isomer 1): anti-B7H3 AK1A (TPP-3803) coupled with Intermediate F297 (antibody, human IgG1, kappa, V domains shown, KSP inhibitor-linker (Intermediate F297) on cysteine residues of the partially reduced antibody, sites not given; drug/mAb ratio 2.4) VH: QVKLQQSGAELVKPGASVKLSCKASGYTFTNYDINWVRQRPEQGLEWIGWIFPGDGSTQYNEKFKGKATLTTDTSSSTAYMQLSRLTSEDSAVYFCARQTTATWFAYWGQGTTVTVSS VL: DIELTQSPTTLSVTPGDRVSLSCRASQSISDYLHWYQQKSHESPRLLIKYASQSISGIPSRFSGSGSGSDFTLSINSVEPEDVGVYYCQNGHSFPLTFGAGTKLELKR",,8.93e-09 M,
"Example 194: anti-B7H3 AK1A (TPP-3803) coupled with Intermediate F194 (antibody, human IgG1, kappa, V domains shown, KSP inhibitor-linker (Intermediate F194) on lysine residues, sites not given; drug/mAb ratio 2.4) VH: QVKLQQSGAELVKPGASVKLSCKASGYTFTNYDINWVRQRPEQGLEWIGWIFPGDGSTQYNEKFKGKATLTTDTSSSTAYMQLSRLTSEDSAVYFCARQTTATWFAYWGQGTTVTVSS VL: DIELTQSPTTLSVTPGDRVSLSCRASQSISDYLHWYQQKSHESPRLLIKYASQSISGIPSRFSGSGSGSDFTLSINSVEPEDVGVYYCQNGHSFPLTFGAGTKLELKR",,6.43e-10 M,
"Example 270L1: anti-B7H3 AK1A (TPP-3803) coupled with Intermediate F270 (antibody, human IgG1, kappa, V domains shown, KSP inhibitor-linker (Intermediate F270) on cysteine residues of the partially reduced antibody, sites not given; drug/mAb ratio 2.8) VH: QVKLQQSGAELVKPGASVKLSCKASGYTFTNYDINWVRQRPEQGLEWIGWIFPGDGSTQYNEKFKGKATLTTDTSSSTAYMQLSRLTSEDSAVYFCARQTTATWFAYWGQGTTVTVSS VL: DIELTQSPTTLSVTPGDRVSLSCRASQSISDYLHWYQQKSHESPRLLIKYASQSISGIPSRFSGSGSGSDFTLSINSVEPEDVGVYYCQNGHSFPLTFGAGTKLELKR",6e-07 M,7e-08 M,
"Example 257L2: anti-B7H3 AK1B (TPP-5706) coupled with Intermediate F257 (antibody, human IgG1, kappa, V domains shown, KSP inhibitor-linker (Intermediate F257) on cysteine residues of the partially reduced antibody, sites not given; drug/mAb ratio 4.5) VH: QVQLQQPGAELVKPGASVKMSCKASGYTFTIYNVHWIKQTPGQGLEWMGTIFPGNGDTSYNQKFKDKATLTTDKSSKTAYMQLNSLTSEDSAVYYCARWDDGNVGFAHWGQGTLVTVSA VL: DIQMTQSPASLSASVGETVTITCRASENINNYLTWFQQKQGKSPQLLVYHAKTLAEGVPSRFSGSGSGTQFSLKINSLQPEDFGSYYCQHHYGTPPTFGGGTKLEIKR",1.16e-10 M and 1.37e-10 M,7.37e-11 M and 8.63e-11 M,1.5e-11 M and < 3e-11 M
"Example 297L2 (Isomer 1): anti-B7H3 AK1B (TPP-5706) coupled with Intermediate F297 (antibody, human IgG1, kappa, V domains shown, KSP inhibitor-linker (Intermediate F297) on cysteine residues of the partially reduced antibody, sites not given; drug/mAb ratio 3.1) VH: QVQLQQPGAELVKPGASVKMSCKASGYTFTIYNVHWIKQTPGQGLEWMGTIFPGNGDTSYNQKFKDKATLTTDKSSKTAYMQLNSLTSEDSAVYYCARWDDGNVGFAHWGQGTLVTVSA VL: DIQMTQSPASLSASVGETVTITCRASENINNYLTWFQQKQGKSPQLLVYHAKTLAEGVPSRFSGSGSGTQFSLKINSLQPEDFGSYYCQHHYGTPPTFGGGTKLEIKR",> 3e-07 M,7.56e-10 M,> 3e-07 M
"Example 240L2: anti-B7H3 AK1B (TPP-5706) coupled with Intermediate F240 (antibody, human IgG1, kappa, V domains shown, KSP inhibitor-linker (Intermediate F240) on cysteine residues of the partially reduced antibody, sites not given; drug/mAb ratio 3.5) VH: QVQLQQPGAELVKPGASVKMSCKASGYTFTIYNVHWIKQTPGQGLEWMGTIFPGNGDTSYNQKFKDKATLTTDKSSKTAYMQLNSLTSEDSAVYYCARWDDGNVGFAHWGQGTLVTVSA VL: DIQMTQSPASLSASVGETVTITCRASENINNYLTWFQQKQGKSPQLLVYHAKTLAEGVPSRFSGSGSGTQFSLKINSLQPEDFGSYYCQHHYGTPPTFGGGTKLEIKR",7.49e-10 M,1.58e-10 M,> 3e-07 M
"Example 284L2: anti-B7H3 AK1B (TPP-5706) coupled with Intermediate F284 (antibody, human IgG1, kappa, V domains shown, KSP inhibitor-linker (Intermediate F284) on cysteine residues of the partially reduced antibody, sites not given; drug/mAb ratio 3.0) VH: QVQLQQPGAELVKPGASVKMSCKASGYTFTIYNVHWIKQTPGQGLEWMGTIFPGNGDTSYNQKFKDKATLTTDKSSKTAYMQLNSLTSEDSAVYYCARWDDGNVGFAHWGQGTLVTVSA VL: DIQMTQSPASLSASVGETVTITCRASENINNYLTWFQQKQGKSPQLLVYHAKTLAEGVPSRFSGSGSGTQFSLKINSLQPEDFGSYYCQHHYGTPPTFGGGTKLEIKR",,7.02e-10 M,
"Example 194L2: anti-B7H3 AK1B (TPP-5706) coupled with Intermediate F194 (antibody, human IgG1, kappa, V domains shown, KSP inhibitor-linker (Intermediate F194) on lysine residues, sites not given; drug/mAb ratio 2.9) VH: QVQLQQPGAELVKPGASVKMSCKASGYTFTIYNVHWIKQTPGQGLEWMGTIFPGNGDTSYNQKFKDKATLTTDKSSKTAYMQLNSLTSEDSAVYYCARWDDGNVGFAHWGQGTLVTVSA VL: DIQMTQSPASLSASVGETVTITCRASENINNYLTWFQQKQGKSPQLLVYHAKTLAEGVPSRFSGSGSGTQFSLKINSLQPEDFGSYYCQHHYGTPPTFGGGTKLEIKR",3.57e-10 M,2.08e-10 M,2.75e-10 M
"Example 275L2: anti-B7H3 AK1B (TPP-5706) coupled with Intermediate F275 (antibody, human IgG1, kappa, V domains shown, KSP inhibitor-linker (Intermediate F275) on cysteine residues of the partially reduced antibody, sites not given; drug/mAb ratio 3.8) VH: QVQLQQPGAELVKPGASVKMSCKASGYTFTIYNVHWIKQTPGQGLEWMGTIFPGNGDTSYNQKFKDKATLTTDKSSKTAYMQLNSLTSEDSAVYYCARWDDGNVGFAHWGQGTLVTVSA VL: DIQMTQSPASLSASVGETVTITCRASENINNYLTWFQQKQGKSPQLLVYHAKTLAEGVPSRFSGSGSGTQFSLKINSLQPEDFGSYYCQHHYGTPPTFGGGTKLEIKR",> 3e-07 M,9.15e-11 M,> 3e-07 M
